Results as given in article PMC9868088.

Assays:
[1] = WB abundance of GFP-β-catenin; details: glycan gained; control: GFP-β-catenin + individual aptamers T1 · AP3
[2] = WB abundance of endogenous β-catenin; details: glycan gained; control: individual aptamers T1 · bc339
[3] = WB phospho-specific antibody; details: glycan gained; control: GFP-β-catenin + individual aptamers T1 · AP3

| Protein | expression_or_secretion [2] | further results |
| --- | --- | --- |
| β-catenin: NL1F DS aptamers (protein) parent chain: MATQADLMELDMAMEPDRKAAVSHWQQQSYLDSGIHSGATTTAPSLSGKGNPEEEDVDTSQVLYEWEQGFSQSFTQEQVADIDGQYAMTRAQRVRAAMFPETLDEGMQIPSTQFDAAHPTNVQRLAEPSQMLKHAVVNLINYQDDAELATRAIPELTKLLNDEDQVVVNKAAVMVHQLSKKEASRHAIMRSPQMVSAIVRTMQNTNDVETARCTAGTLHNLSHHREGLLAIFKSGGIPALVKMLGSPVDSVLFYAITTLHNLLLHQEGAKMAVRLAGGLQKMVALLNKTNVKFLAITTDCLQILAYGNQESKLIILASGGPQALVNIMRTYTYEKLLWTTSRVLKVLSVCSSNKPAIVEAGGMQALGLHLTDPSQRLVQNCLWTLRNLSDAATKQEGMEGLLGTLVQLLGSDDINVVTCAAGILSNLTCNNYKNKMMVCQVGGIEALVRTVLRAGDREDITEPAICALRHLTSRHQEAEMAQNAVRLHYGLPVVVKLLHPPSHWPLIKATVGLIRNLALCPANHAPLREQGAIPRLVQLLVRAHQDTQRRTSMGGTQQQFVEGVRMEEIVEGCTGALHILARDVHNRIVIRGLNTIPLFVQLLYSPIENIQRVAAGVLCELAQDKEAAEAIEAEGATAPLTELLHSRNEGVATYAAAVLFRMSEDKPQDYKKRLSVELTSSLFRTEPMAWNETADLGLDIGAQGEPLGYRQDDPSYRSFHSGGYGQDALGMDPMMEHEMGGHHPGADYPVDGLPDLGHAQDLMDGLPPGDSNQLAWFDTDL |  | expression_or_secretion [1]: increases |
| β-catenin: NL8F100 (protein) parent chain: MATQADLMELDMAMEPDRKAAVSHWQQQSYLDSGIHSGATTTAPSLSGKGNPEEEDVDTSQVLYEWEQGFSQSFTQEQVADIDGQYAMTRAQRVRAAMFPETLDEGMQIPSTQFDAAHPTNVQRLAEPSQMLKHAVVNLINYQDDAELATRAIPELTKLLNDEDQVVVNKAAVMVHQLSKKEASRHAIMRSPQMVSAIVRTMQNTNDVETARCTAGTLHNLSHHREGLLAIFKSGGIPALVKMLGSPVDSVLFYAITTLHNLLLHQEGAKMAVRLAGGLQKMVALLNKTNVKFLAITTDCLQILAYGNQESKLIILASGGPQALVNIMRTYTYEKLLWTTSRVLKVLSVCSSNKPAIVEAGGMQALGLHLTDPSQRLVQNCLWTLRNLSDAATKQEGMEGLLGTLVQLLGSDDINVVTCAAGILSNLTCNNYKNKMMVCQVGGIEALVRTVLRAGDREDITEPAICALRHLTSRHQEAEMAQNAVRLHYGLPVVVKLLHPPSHWPLIKATVGLIRNLALCPANHAPLREQGAIPRLVQLLVRAHQDTQRRTSMGGTQQQFVEGVRMEEIVEGCTGALHILARDVHNRIVIRGLNTIPLFVQLLYSPIENIQRVAAGVLCELAQDKEAAEAIEAEGATAPLTELLHSRNEGVATYAAAVLFRMSEDKPQDYKKRLSVELTSSLFRTEPMAWNETADLGLDIGAQGEPLGYRQDDPSYRSFHSGGYGQDALGMDPMMEHEMGGHHPGADYPVDGLPDLGHAQDLMDGLPPGDSNQLAWFDTDL | increases |  |
| β-catenin: NL1F30 (protein) parent chain: MATQADLMELDMAMEPDRKAAVSHWQQQSYLDSGIHSGATTTAPSLSGKGNPEEEDVDTSQVLYEWEQGFSQSFTQEQVADIDGQYAMTRAQRVRAAMFPETLDEGMQIPSTQFDAAHPTNVQRLAEPSQMLKHAVVNLINYQDDAELATRAIPELTKLLNDEDQVVVNKAAVMVHQLSKKEASRHAIMRSPQMVSAIVRTMQNTNDVETARCTAGTLHNLSHHREGLLAIFKSGGIPALVKMLGSPVDSVLFYAITTLHNLLLHQEGAKMAVRLAGGLQKMVALLNKTNVKFLAITTDCLQILAYGNQESKLIILASGGPQALVNIMRTYTYEKLLWTTSRVLKVLSVCSSNKPAIVEAGGMQALGLHLTDPSQRLVQNCLWTLRNLSDAATKQEGMEGLLGTLVQLLGSDDINVVTCAAGILSNLTCNNYKNKMMVCQVGGIEALVRTVLRAGDREDITEPAICALRHLTSRHQEAEMAQNAVRLHYGLPVVVKLLHPPSHWPLIKATVGLIRNLALCPANHAPLREQGAIPRLVQLLVRAHQDTQRRTSMGGTQQQFVEGVRMEEIVEGCTGALHILARDVHNRIVIRGLNTIPLFVQLLYSPIENIQRVAAGVLCELAQDKEAAEAIEAEGATAPLTELLHSRNEGVATYAAAVLFRMSEDKPQDYKKRLSVELTSSLFRTEPMAWNETADLGLDIGAQGEPLGYRQDDPSYRSFHSGGYGQDALGMDPMMEHEMGGHHPGADYPVDGLPDLGHAQDLMDGLPPGDSNQLAWFDTDL |  | other: Ser675 phosphorylation [3]: increases |
| β-catenin: 3JB8F+12 (protein) parent chain: MATQADLMELDMAMEPDRKAAVSHWQQQSYLDSGIHSGATTTAPSLSGKGNPEEEDVDTSQVLYEWEQGFSQSFTQEQVADIDGQYAMTRAQRVRAAMFPETLDEGMQIPSTQFDAAHPTNVQRLAEPSQMLKHAVVNLINYQDDAELATRAIPELTKLLNDEDQVVVNKAAVMVHQLSKKEASRHAIMRSPQMVSAIVRTMQNTNDVETARCTAGTLHNLSHHREGLLAIFKSGGIPALVKMLGSPVDSVLFYAITTLHNLLLHQEGAKMAVRLAGGLQKMVALLNKTNVKFLAITTDCLQILAYGNQESKLIILASGGPQALVNIMRTYTYEKLLWTTSRVLKVLSVCSSNKPAIVEAGGMQALGLHLTDPSQRLVQNCLWTLRNLSDAATKQEGMEGLLGTLVQLLGSDDINVVTCAAGILSNLTCNNYKNKMMVCQVGGIEALVRTVLRAGDREDITEPAICALRHLTSRHQEAEMAQNAVRLHYGLPVVVKLLHPPSHWPLIKATVGLIRNLALCPANHAPLREQGAIPRLVQLLVRAHQDTQRRTSMGGTQQQFVEGVRMEEIVEGCTGALHILARDVHNRIVIRGLNTIPLFVQLLYSPIENIQRVAAGVLCELAQDKEAAEAIEAEGATAPLTELLHSRNEGVATYAAAVLFRMSEDKPQDYKKRLSVELTSSLFRTEPMAWNETADLGLDIGAQGEPLGYRQDDPSYRSFHSGGYGQDALGMDPMMEHEMGGHHPGADYPVDGLPDLGHAQDLMDGLPPGDSNQLAWFDTDL | increases |  |
